Patent US20140343256A1 (TECHNISCHE UNIVERSITAT MUNCHEN, published 2014)
Ends that are not written are not given here. * marks the point of attachment. Palmitoyl = CCCCCCCCCCCCCCCC(=O)*

Tests used:
[1] = molecular target: T1, N-palmitoyl-S-(2,3-bis(palmitoyloxy)-(2R,S)-propyl)-(R)-cysteinyl-seryl-(lysyl)-3-lysine; experiment: SPR, antibody alone over immobilised P3CSK4
T1 construct: Synthetic bacterial lipopeptide analogue and TLR2 agonist, immobilised on the SPR chip; also called P3CSK4; tripalmitoyl-cysteinyl-seryl-(lysyl)3-lysine
T1 peptide: Palmitoyl-C(2,3‑bis(palmitoyloxy)‑(2R,S)‑propyl)SKKKK

[2] = molecular target: recombinant TLR2ECD-Fc fusion protein (human IgGFc fused mouse TLR2ECD protein) (murine; human) (UniProt Q9QUN7); experiment: SPR competition: T2EC pre-incubated with T2.5, binding to immobilised P3CSK4
Sequence of recombinant TLR2ECD-Fc fusion protein (human IgGFc fused mouse TLR2ECD protein) (murine; human) (Q9QUN7 25-587 limits assumed, form in doubt): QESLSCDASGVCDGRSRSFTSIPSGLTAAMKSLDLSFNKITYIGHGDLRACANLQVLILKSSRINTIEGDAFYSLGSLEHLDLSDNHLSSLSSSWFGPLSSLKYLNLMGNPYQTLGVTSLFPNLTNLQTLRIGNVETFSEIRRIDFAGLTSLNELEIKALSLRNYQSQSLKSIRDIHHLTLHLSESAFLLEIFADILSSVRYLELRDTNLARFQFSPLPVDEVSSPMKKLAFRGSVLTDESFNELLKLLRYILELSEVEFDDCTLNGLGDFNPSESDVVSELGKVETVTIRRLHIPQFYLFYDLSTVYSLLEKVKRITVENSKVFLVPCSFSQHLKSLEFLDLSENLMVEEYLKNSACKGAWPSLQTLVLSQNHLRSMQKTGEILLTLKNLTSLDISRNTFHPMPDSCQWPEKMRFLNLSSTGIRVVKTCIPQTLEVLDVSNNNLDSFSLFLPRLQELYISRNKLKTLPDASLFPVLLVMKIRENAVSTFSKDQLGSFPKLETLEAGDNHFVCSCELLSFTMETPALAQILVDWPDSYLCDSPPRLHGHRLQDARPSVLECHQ

B1: murine monoclonal antibody T2.5 (antibody, V domains shown)
VH: QVQLQQSGPELVNPGASVKLSCKASGFTFTTYGINWVKQGPGQGLEWIGWIYPRDGSTNFNENFKDKAALTVDTSSSTAYMELHSLTSEDSAVYFCARLTGGTFLDYWGQGTTLTVSS
VL: DIVLTQSPASLAVSLGQRATISCRASESVEYYGTSLMQWYQQKPGQPPKLLIFGASNVESGVPVRFSGSGSGTDFSLNIHPVEEDDIVMYFCQQSRKLPWTFGGGTKLEIKR
notes: also called mAb T2.5; native T2.5
- binding result [1]: no binding
- molar excess of T2.5 over T2EC that abrogated the T2EC-P3CSK4 interaction (fold molar excess) [2]: 10
- molar ratio (T2.5:T2ECD) required to reduce binding to 50% (molar ratio (T2.5:T2ECD)) [2]: 3.3
